Assay results as given in the DeepSol protein solubility set.

Experiment: soluble on expression in E. coli; label from the status in PepcDB or PDB records

| Sequence | soluble on expression in E. coli |
| --- | --- |
| MLRKEEILERTSNGLSVFKHYVPGNWRIGRNFLNPLYEDNKASCNIYFDRRSGIYKMKDFGNDNYSGDCFFFVGQLKGLDCNNSMDFVEILETIDRDLGLGLATGNPIPVTRNSCRVVDNILEETPEKESKPYQFREQKFPLAELMYWQQYGITPEILELYKVCSLRDFQSVTADGTQFTYTSSVTEPMYGYKSKRYIKLYRPFSKTRFLYGGNFGDNYCFGLEQLPAKGDTLFITGGEKDVMSLAAHGFHAICFNSETVTVPPTLIYKLTFRFKHIILLYDTDKTGKESARKQEKQLEEFSVKRLLLPLSGTKEEKDISDYFKAGNTREDFLKLFIEFLDNLYSDTLIMLKSCEIDFNNPPAKAQVIISAGDVPLGTQGNLFGITGGEGTGKSNYIAAMLAGCICQPDKEVDTLGIQITANSKRKAVLLYDTEQSEVQLFKNVSNLLARAKQPDKPEELKAFCLTGMSRKERLHAIVQSMDKFYYQYGGIQLVVIDGIADLVKSANDEAESVAVIDELYRLAGIYNTCILCVLHFVPNGLKLRGHLGSELQRKAATILSIEKDEEPTQSVVKALKVRDGSPLDVPLMLFAWDKAAGMHLYKGEKPREEKEKRKEKELVCVARDIFGRQTHITYIDLCEQVAAGFGRERTYCQKLCSFHAGTGYYH | not soluble |
| MLRLEEDEPSPGICDQLHEIVRSIGLLCYVACPPIPSEIIRKLAFHPPDKGATYRIELKSDPEKDLESVRDCHDEPVQLVVRDRVHPEVKVFSVTTSEDSHLVCVKCSPNCYSKNPEVANQVVLFCQSSSADLGSFLQPNSMNFSTFANLFETDVYAFDYSGYGFSSGTQSEKNMYADVRAVYEHILKTRPDKKIVVIGYSIGTTAAVDLAASNPDRLVGVVLIAPLTSALRMFCNNPDKETTCIDKICHINTRVLICHGDHDQRIPMTHGMALYENLKNPVPPLIVHGANHHSIISGEYIEVFTRIASFMRNETLLSCRANQIESSSSKKFKHE | not soluble |
| MLSEERVKELLKKLKDLKILVVGDVILDTYLYGNVERISPEAPVPVLEVEGEEFRLGGAGNVAKNLSSLGVETYLCGVVGKDEAGKRLRELIEGNSIRSFLIEDERPTTKKTRVVSRNQQLLRIDWEDRSYISGKALEKILDVIKNLQVDGIIVSDYAKGVITEEVIKTIREKGVFYSVDPRPKHRELYRKAYLMTPNEKELREMSKFEGSVEELGKKLKEELELETLIVTRGEKGMSLFTEKGVKHFPARARKVYDVTGAGDTVIASITAFKLAGATWEECCELGNVCGGIVVGEFGTATVTPEKLLKAVKLNS | not soluble |
| MLSFINKPRMESKMTIPELRELYQTQQLVEAIIEPSFQEGEWIVEFRHQMGGFVLLTDENGEECRYIDLDSASQSAMAVGFRQVRIENQ | not soluble |
| MLSFRNWWAREDSNPRPPGYEPGALPTELRAHTAIRLYSNKTPLSRSVISMKKDPIKEMLVKYPRILVIKAALKILKDGNKIDRERIEKTIVKIMTKKEGLEHHHHHH | soluble |
| MLSGYIAGAIMKQEVILVLDCGATNVRAIAVNRQGKIVARASTPNASDIAMENNTWHQWSLDAILQRFADCCRQINSELTECHIRGIAVTTFGVDGALVDKQGNLLYPIISWKCPRTAAVMDNIERLISAQRLQAISGVGAFSFNTLYKLVWLKENHPQLLERAHAWLFISSLINHRLTGEFTTDITMAGTSQMLDIQQRDFSPQILQATGIPRRLFPRLVEAGEQIGTLQNSAAAMLGLPVGIPVISAGHDTQFALFGAGAEQNEPVLSSGTWEILMVRSAQVDTSLLSQYAGSTCELDSQAGLYNPGMQWLASGVLEWVRKLFWTAETPWQMLIEEARLIAPGADGVKMQCDLLSCQNAGWQGVTLNTTRGHFYRAALEGLTAQLQRNLQMLEKIGHFKASELLLVGGGSRNTLWNQIKANMLDIPLKVLDDAETTVAGAALFGWYGVGEFNSPEEARAQIHYQFRYFYPQTEPEFIEEV | not soluble |
| MLSKITQELLKMNNVLLMRPDDSEFMIPDDWSGLNAKGITYEQDNRVTESFLPFKSFYCSPVCTTVELISQNNCFAMGIRYLLEKKRDLRLNHFKAFSHKCETKPDVLIMTGCTVADTYSIFSRIVEENIMKTMTPIVIITGHHSEDLCSLASKLGGVKIISPTEKIAKIENAINDAFNSKPKKIRFLTDILSPQQIETMKMVAQGRSVNEISAAMNISIKTVYAHKVRAINKLGIKKKVYEALFYKALIQFN | not soluble |
| MLSPLAKANLCLNLFGFFKVPLIWACRPKILSLNDQAVEVRIPLKRRNKNHLNSMYFGVLAVGADVAGGYMAMHKANQRGKSVSLAFKSVRGEFHKRPEAAVHFHCVEGEKIDRMLDETARTGERVNQEVHIIATCPTLHGDEPMAEFWLTLSLKIVKLEHHHHHH | soluble |
| MLSVIGIGPGSQAMMTMEAIEALQAAEIVVGYKTYTHLVKAFTGDKQVIKTGMCREIERCQAAIELAQAGHNVALISSGDAGIYGMAGLVLELVSKQKLDVEVRLIPGMTASIAAASLLGAPLMHDFCHISLSDLLTPWPVIEKRIVAAGEADFVICFYNPRSRGREGHLARAFDLLAASKSAQTPVGVVKSAGRKKEEKWLTTLGDMDFEPVDMTSLVIVGNKTTYVQDGLMITPRGYTL | not soluble |
| MLTGLFFGSFNPMHIGHLALANYLTEYTPIGQLWFVPSPLNPLKNTQELLPYDLRCELIEQAIRKDIRFQVLRIEELLPSPHYTIRTLRALSMLYPHHRFALLIGADNWQSFDRWKDHHRLMAKYELIIYPRFGYEVDDTTLPTGCRYIHDAPRIEISSTQIRTSILEGKDLRYWLPLPESQDVIASALQSCLSPKR | not soluble |
| MLTIGLYNTYDTKKLHEAHIRAIARAAPVAYAYEFHLALIGFPFDSDDPKEVAERVASTTTIGEGGKYLLELAKSNKFHLLDFPKRGFPPQFGEVIATTSKPSKEKVIGSREVAEMALRGKSLMLIIGLGRHGLPKEVFEISKYHLDITDGREISLETCTAIGIIPARIKTLMEALKWK | not soluble |
| MLTKGWDTISIVRQDSVNSDLAASWNSLDHEFSYTSDEGYACHGVFDCWSVINGGGGRLLRLRMPIRSGFFEASGTSRSLAGAVAIIEVTLSLLPQGNGQVQLKSAFLHKAGATQPLQGDEGGWLRGITLQDPDGSLGPFASVVLDCICNYLVEHPLQFTHTFATINFSKATAPEWARPRKCTYAYLDSGFLAIMAVCTERDISGLPLDIDVSGISQGGQSSYVLSPRMVLEHLVLPGLLQLYQGATAQDYRLDNTQMVNIPTLRMKAIKSGAIWYTPVVFAGCNPARMLGDFITVDYKGDCDLHAGIDMKWNGWLRMKLVLDGNTINFVKQSSDFRKEVHIPWYLAWLSPIVSLITHIVAAVISDDLISAIAARGGSVKADTIDCVSWSNDTHTASSSYLAEALVINYV | soluble |
| MLTLIQGKKIVNHLRSRLAFEYNGQLIKILSKNIVAVGSLRREEKMLNDVDLLIIVPEKKLLKHVLPNIRIKGLSFSVKVCGERKCVLFIEWEKKTYQLDLFTALAEEKPYAIFHFTGPVSYLIRIRAALKKKNYKLNQYGLFKNQTLVPLKITTEKELIKELGFTYRIPKKRL | soluble |
| MLTVDQVKELVGEIKDPIIDVPLKETEGIVEVSIKEEKEHVSVKLAMAQLGGAPQLDLQMAVVNALKENGAKTVGIRFETLPEEKVNQFKPKEENKPKTIEGLLSQNNPVEFIAIASGKGGVGKSTVAVNLAVALAREGKKVGLVDADIYGFSVPDMMGIDEKPGIKGKEVIPVERHGVKVISMAFFVEENAPVIWRGPMLGKMLTNFFTEVKWGDIEYLILDLPPGTGDVALDVHTMLPSSKEIIVTTPHPTAAFVAARAGAMAKHTDHSILGVIENMSYFESKETGNKEYVFGKGGGTKLADELNTQLLGELPLEQPSWNPKDFAPSIYQSDDRLGKIYSSIAQKVIAATNKLEHHHHHH | soluble |
| MLVGLIGYGAIGKFLAEWLERNGFEIAAILDVRGEHEKMVRGIDEFLQREMDVAVEAASQQAVKDYAEKILKAGIDLIVLSTGAFADRDFLSRVREVCRKTGRRVYIASGAIGGLDAIFSASELIEEIVLTTRKNWRQFGRKGVIFEGSASEAAQKFPKNLNVAATLSIASGKDVKVRLVADEVEENIHEILVRGEFGEMEIRVRNRPMRENPKTSYLAALSVTRILRNLKEGLVV | soluble |
| MLVLGSGGARGYAHIGVIEELEARGYEITCIAGCSMGSVIGGIYAAGKLREYREWVESLDYLDVLRLLDVSFRLGAIRGERVFGKIHEILGEVNIEDLSIPYTAVATDLTNQQEIWFQEGCLHQAMRASAAIPSLFTPVMQGSRMLVDGGLLNPLPIVPVV | soluble |
| MLVRDVMKSPVLTVGPEATLEEAYKLLLERGIRHLPVVEEGRLVGIVTDRDIRLATSHLNPKGPCPGCTRVGEVMTREVVTAHPLDPVEEAARVMRERKIGCLPVLEDEALVGIVTGIDLLDALLRLTGVTEPSGRLEVRLPDRPGELARLTGFLAGRGVNIHSLLSYPEGREFVRAVVRVNTLETHLLAEALRREGFDVLWPPKKPW | soluble |
| MLYASYMSYVSIKMHASSNGAHISGAETLVDESRAYEFLSSFYQRANTHSKGKPEITTLTIRRIKDADIITIPALEVKCLPALHPSEAHRQVIEQLSNVVSPTIAQMALHTVLNARNMRGAILLCAHTGQRLDPYDPQRGVRASTFGVTPQESAGPTLNKSHFNEALVLASKVMSAPGIVAEICISDDPAYTTGYVTTENTYIRIPHMKDPYSPIGGRVFLLDTRVSTPEDTISYLEQKPVLITGVN | not soluble |
| MLYKEPEDGEKIKFDKGKWIVPNKPVILYIEGDGIGPEITNAAIKVINKAVERAYGSSREIKWLEVYAGEKAEKLVNDRFPKETQEMLLKYRVVLKGPLETPIGKGWKSVNVAIRLMLDLYANIRPVKYIEGLESPLKHPEKVDMIIFRENTDDLYRGIEYPFNSEEAKKIRDFLRKELKVEIEDDTGIGIKVMSKYKTQRITRLAIQYAIEHKRKKVTIMHKGNVMKYTEGAFREWAYEVALKEYRDFIVTEEEINQGKPDQGKIILNDRIADNMFQQIIIRPEEYDIILAPNVNGDYISDAAGALIGNIGMLGGANIGDEGGMFEAIHGTAPKYAGKNVANPTGIIKAGELMLRWMGWNEAADLIEKAINMAIRDKKVTQDIARFMGVKALGTKEYADELIKIMDTI | soluble |
| MLYLAELLQGKNALITGAGRGIGRAVAIALAKEGVNVGLLARSEENLKAVAKEVEAEGVKAVIATADVSSYEEVTTAIETLKNGLGSIDILINNAGISKFGKFLELDVADWEKIIQVNLMGVYYATRAALPSMIEQQSGDIINISSTAGQKGAPVTSAYSASKFGVLGLTESLAMEVRKHNIRVTALTPSTVATDMAVDLGLTDGNPDKVMQAEDIAEFIVAQLKLNKRTFIKSAGLWSTNP | not soluble |
| MLYLHDIWVNWFEGEENGYNVCHFHEWRKDDQIELLDQVPLLKVSPALFHYIENSLSDLPKPLLDDVHQKAYVRKNHERIQLDYCFVVTDGAGVLAVDTIGYQIPIRKSRLIPRQEQLVYEMAAEAEERDYPLPRYEKEYHILSPAPELMCGLTRKERQLKQLLFMALDQLYSTKNTAQMRYWYTEWAPEKYAAIQKMSFDEAWEQLYNETKYGWSERHEQLCENLIKGQPFFEKLWEMEQEPKVN | soluble |
| MMAKKPPKPAPRRIFQERLKITALPLYFEGFLLIKRSGYREYEHYWTELRGTTLFFYTDKKSIIYVDKLDIVDLTCLTEQNSTEKNCAKFTLVLPKEEVQLKTENTESGEEWRGFILTVTELSVPQNVSLLPGQVIKLHEVLEREKKRRIETEQSTSVEKEKEPTEDYVDVLNPMPACFYTVSRKEATEMLQKNPSLGNMILRPGSDSRNYSITIRQEIDIPRIKHYKVMSVGQNYTIELEKPVTLPNLFSVIDYFVKETRGNLRPFICSTDENTGQEPSMEGRSEKLKKNPHIA | soluble |
| MMARVTPDQALISFRNARILWAGHSESRKAVEQQIESLLTAMEKPADYARQLELQREHLDVLKWQINCAARECIYSQHQLMEACTEDALSNFMQANGAALTSALAPFLKGRGGVDVASRILRNALVRQLAITPPEIAGDYRMILDESGVMPDPMMVRDCQSSYTPAQQLRFQQRLDYINGMQE | soluble |
